Laboratory results published in article PMC6639327, “PLPP/CIN-mediated NEDD4-2 S448 dephosphorylation regulates neuronal excitability via GluA1 ubiquitination” (Cell Death & Disease, 2019).

What was measured:
[1] = target: Neuronal precursor cell expressed developmentally downregulated 4-2 (NEDD4-2) (mouse (endogenous in hippocampus)) (UniProt Q8CFI0); assay: co-IP; mouse hippocampal tissue lysed in RIPA buffer with protease and phosphatase inhibitors; equal protein incubated with NEDD4-2, ubiquitin or GluA1 antibody and protein G sepharose at 4 °C overnight; western blot; WT, PLPP/CIN^-/- and PLPP/CIN^Tg mice, saline or KA (25 mg/kg, 2 h), control or NEDD4-2 siRNA
[2] = target: T1, full-length recombinant human NEDD4-2, phosphorylated by SGK1 (human, UniProt Q96PU5 1-975, phosphorylated by incubation with 200 U/μl SGK1 and 100 μM ATP (S342 and S448 phosphorylation followed by western blot)); assay: co-IP; in vitro with recombinant proteins: NEDD4-2 (10 ng/μl) phosphorylated with 200 U/μl SGK1 and 100 μM ATP in kinase assay buffer I at 30 °C for 1 h, then PLPP/CIN (10 ng/μl) added, 30 °C for 1 h; coprecipitation and western blot; settings: both partners purified
T1 construct: human NEDD4-2, full-length recombinant protein (Abcam); SGK1 and ATP were still in the sample when PLPP/CIN was added; source: bought: Abcam; phosphorylated in vitro with SGK1 (SignalChem) and ATP
T1 sequence (looked up): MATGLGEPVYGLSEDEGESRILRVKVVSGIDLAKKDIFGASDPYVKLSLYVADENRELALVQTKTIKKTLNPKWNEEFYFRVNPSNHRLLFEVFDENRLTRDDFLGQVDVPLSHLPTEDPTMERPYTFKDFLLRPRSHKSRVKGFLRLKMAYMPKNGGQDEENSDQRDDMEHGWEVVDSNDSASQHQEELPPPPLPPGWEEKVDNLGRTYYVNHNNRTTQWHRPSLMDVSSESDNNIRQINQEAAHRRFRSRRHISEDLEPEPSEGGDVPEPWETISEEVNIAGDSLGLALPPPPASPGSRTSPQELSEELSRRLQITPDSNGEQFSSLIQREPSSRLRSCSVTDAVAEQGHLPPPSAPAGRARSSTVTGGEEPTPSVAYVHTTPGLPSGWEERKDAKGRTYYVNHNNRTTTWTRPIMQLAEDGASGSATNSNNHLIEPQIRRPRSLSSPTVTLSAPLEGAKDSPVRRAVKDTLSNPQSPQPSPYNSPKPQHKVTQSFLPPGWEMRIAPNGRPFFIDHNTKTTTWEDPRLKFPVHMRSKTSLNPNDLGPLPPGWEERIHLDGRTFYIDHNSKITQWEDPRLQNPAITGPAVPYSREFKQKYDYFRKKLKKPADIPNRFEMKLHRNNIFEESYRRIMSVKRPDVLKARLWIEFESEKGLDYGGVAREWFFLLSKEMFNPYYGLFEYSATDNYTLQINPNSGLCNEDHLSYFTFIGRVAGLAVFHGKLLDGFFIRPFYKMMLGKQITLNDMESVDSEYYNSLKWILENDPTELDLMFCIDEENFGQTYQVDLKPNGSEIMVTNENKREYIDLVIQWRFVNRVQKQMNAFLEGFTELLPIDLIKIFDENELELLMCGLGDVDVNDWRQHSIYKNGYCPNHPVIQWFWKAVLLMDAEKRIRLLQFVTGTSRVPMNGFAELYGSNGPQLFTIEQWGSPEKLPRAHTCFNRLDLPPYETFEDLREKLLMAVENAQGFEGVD

[3] = target: T2, Neuronal precursor cell expressed developmentally downregulated 4-2 (NEDD4-2) (mouse (endogenous in hippocampus), UniProt Q8CFI0 1-1004); assay: co-IP; mouse hippocampal tissue lysed in RIPA buffer with protease and phosphatase inhibitors; equal protein incubated with NEDD4-2, ubiquitin or GluA1 antibody and protein G sepharose at 4 °C overnight; western blot; WT, PLPP/CIN^-/- and PLPP/CIN^Tg mice, saline or KA (25 mg/kg, 2 h), control or NEDD4-2 siRNA; settings: partners not purified
T2 construct: NEDD4-2 E3 ubiquitin ligase, endogenous in mouse hippocampus; S222 and S328 in murine NEDD4-2; source: endogenous, mouse hippocampal tissue lysate (RIPA buffer)
T2 sequence (looked up): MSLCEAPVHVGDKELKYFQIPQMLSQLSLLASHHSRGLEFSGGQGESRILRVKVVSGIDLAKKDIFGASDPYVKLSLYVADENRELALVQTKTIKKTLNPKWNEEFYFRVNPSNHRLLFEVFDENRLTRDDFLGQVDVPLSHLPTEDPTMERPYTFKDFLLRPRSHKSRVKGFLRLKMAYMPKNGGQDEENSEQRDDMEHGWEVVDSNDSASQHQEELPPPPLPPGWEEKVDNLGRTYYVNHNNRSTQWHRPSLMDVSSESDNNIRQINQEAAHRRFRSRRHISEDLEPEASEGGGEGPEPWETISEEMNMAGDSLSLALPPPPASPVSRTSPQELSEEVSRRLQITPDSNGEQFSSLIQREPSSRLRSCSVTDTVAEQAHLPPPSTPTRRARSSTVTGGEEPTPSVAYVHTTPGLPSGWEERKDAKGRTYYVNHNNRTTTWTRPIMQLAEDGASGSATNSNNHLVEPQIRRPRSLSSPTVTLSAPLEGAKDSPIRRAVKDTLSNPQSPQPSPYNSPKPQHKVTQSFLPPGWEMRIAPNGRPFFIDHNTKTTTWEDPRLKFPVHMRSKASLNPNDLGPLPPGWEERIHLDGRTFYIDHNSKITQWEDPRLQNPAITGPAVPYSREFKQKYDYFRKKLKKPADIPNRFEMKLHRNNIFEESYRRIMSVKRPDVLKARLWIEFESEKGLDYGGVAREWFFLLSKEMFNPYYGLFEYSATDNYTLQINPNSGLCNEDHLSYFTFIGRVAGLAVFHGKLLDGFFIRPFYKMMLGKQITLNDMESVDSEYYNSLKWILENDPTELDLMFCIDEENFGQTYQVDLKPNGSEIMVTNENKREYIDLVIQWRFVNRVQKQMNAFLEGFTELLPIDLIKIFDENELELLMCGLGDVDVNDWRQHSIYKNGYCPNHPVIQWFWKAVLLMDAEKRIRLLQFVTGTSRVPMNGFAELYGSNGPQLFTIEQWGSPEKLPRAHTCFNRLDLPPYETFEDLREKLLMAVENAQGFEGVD

In the case of “PLPP/CIN in PLPP/CIN transgenic (PLPP/CIN^Tg) mice (from UniProt P60487 1-292)”, the fold of the binding in WT mice [1] is reported as 1.4 fold.

B1: recombinant human PLPP/CIN protein (enzyme, UniProt Q96GD0 1-296, looked up)
chain: MARCERLRGAALRDVLGRAQGVLFDCDGVLWNGERAVPGAPELLERLARAGKAALFVSNNSRRARPELALRFARLGFGGLRAEQLFSSALCAARLLRQRLPGPPDAPGAVFVLGGEGLRAELRAAGLRLAGDPSAGDGAAPRVRAVLVGYDEHFSFAKLREACAHLRDPECLLVATDRDPWHPLSDGSRTPGTGSLAAAVETASGRQALVVGKPSPYMFECITENFSIDPARTLMVGDRLETDILFGHRCGMTTVLTLTGVSRLEEAQAYLAAGQHDLVPHYYVESIADLTEGLED
notes: human pyridoxal-5'-phosphate phosphatase/chronophin, recombinant protein (Abcam); The sentence reads 'full-length recombinant human NEDD4-2 (Abcam, UK) and human PLPP/CIN proteins'; whether 'full-length' also covers PLPP/CIN is not clear; source: bought: Abcam
B1: binds [2].

B2: Pyridoxal-5'-phosphate phosphatase/chronophin (PLPP/CIN) (enzyme, mouse (endogenous in hippocampus), UniProt P60487 1-292, looked up)
chain: MARCERLRGAALRDVLGQAQGVLFDCDGVLWNGERIVPGAPELLQRLARAGKNTLFVSNNSRRARPELALRFARLGFAGLRAEQLFSSALCAARLLRQRLSGPPDASGAVFVLGGEGLRAELRAAGLRLAGDPGEDPRVRAVLVGYDEQFSFSRLTEACAHLRDPDCLLVATDRDPWHPLSDGSRTPGTGSLAAAVETASGRQALVVGKPSPYMFQCITEDFSVDPARTLMVGDRLETDILFGHRCGMTTVLTLTGVSSLEEAQAYLTAGQRDLVPHYYVESIADLMEGLED
notes: Pyridoxal-5'-phosphate phosphatase/chronophin, endogenous in the hippocampus of WT mice; source: endogenous, mouse hippocampal tissue lysate (RIPA buffer)
In the case of B2, the “fold of control level (2 h after KA, WT mice)” value [3] is reported as ~1.4 fold.
